Reference: the supplement of paper PMC10567573

B1: HESX1 (parent)
chain: QKKDCVPLMKPHRPWADTCSSSGK

Variants of: B1
Experiment: protein stability index of a GFP-peptide fusion (GPS, HEK-293T) (PSI 1-6); higher = more stable
Details: c terminus: a fixed tail appended
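Note: lentivirally expressed fusions sorted by FACS into six bins by GFP to DsRed ratio, PSI derived from sequencing read proportions per bin multiplied by bin number.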

Variant	protein stability index
QKKDCVPLMKPHRPWADTCDSSGK [S20D]	3.32
QKKDCVPLMKPHRPWADTCCSSGK [S20C]	3.03
QKKDCVPLMKPHRPWADTCESSGK [S20E]	3.47
QKKDCVPLMKPHRPWADTCFSSGK [S20F]	2.3
QKKDCVPLMKPHRPWADTCKSSGK [S20K]	3.83
QKKDCVPLMKPHRPWADTCRSSGK [S20R]	3
QKKDCVPLMKPHRPWADTCYSSGK [S20Y]	2.31
QKKDCVPLMKPHRPWADTCWSSGK [S20W]	2.74
QKKDCVPLMKPHRPWADTCQSSGK [S20Q]	3.05
QKKDCVPLMKPHRPWADTCMSSGK [S20M]	3.18
QKKDCVPLMKPHRPWADTCASSGK [S20A]	3.71
QKKDCVPLMKPHRPWADTCHSSGK [S20H]	3.24
QKKDCVPLMKPHRPWADTCLSSGK [S20L]	2.61
QKKDCVPLMKPHRPWADTCPSSGK [S20P]	3.79
QKKDCVPLMKPHRPWADTCISSGK [S20I]	2.98
QKKDCVPLMKPHRPWADTCVSSGK [S20V]	3.84
QKKDCVPLMKPHRPWADTCTSSGK [S20T]	2.96
QKKDCVPLMKPHRPWADTCGSSGK [S20G]	2.38
QKKDCVPLMKPHRPWADTCNSSGK [S20N]	3.33
QKKDCVPLMKPHRPWADTCSRSGK [S21R]	2.56
QKKDCVPLMKPHRPWADTCSHSGK [S21H]	2.88
QKKDCVPLMKPHRPWADTCSVSGK [S21V]	3.15
QKKDCVPLMKPHRPWADTCSLSGK [S21L]	3.18
QKKDCVPLMKPHRPWADTCSTSGK [S21T]	3.38

Variant	protein stability index
QKKDCVPLMKPHRPWADTCSMSGK [S21M]	2.58
QKKDCVPLMKPHRPWADTCSESGK [S21E]	3.86
QKKDCVPLMKPHRPWADTCSYSGK [S21Y]	2.32
QKKDCVPLMKPHRPWADTCSASGK [S21A]	3.61
QKKDCVPLMKPHRPWADTCSCSGK [S21C]	2.92
QKKDCVPLMKPHRPWADTCSWSGK [S21W]	2.79
QKKDCVPLMKPHRPWADTCSISGK [S21I]	2.69
QKKDCVPLMKPHRPWADTCSKSGK [S21K]	3.68
QKKDCVPLMKPHRPWADTCSFSGK [S21F]	2.44
QKKDCVPLMKPHRPWADTCSPSGK [S21P]	3.58
QKKDCVPLMKPHRPWADTCSQSGK [S21Q]	3.75
QKKDCVPLMKPHRPWADTCSGSGK [S21G]	3.92
QKKDCVPLMKPHRPWADTCSNSGK [S21N]	3.4
QKKDCVPLMKPHRPWADTCSDSGK [S21D]	3.24
QKKDCVPLMKPHRPWADTCSSSKK [G23K]	4.08
QKKDCVPLMKPHRPWADTCSSSAK [G23A]	3.69
QKKDCVPLMKPHRPWADTCSSSFK [G23F]	1.61
QKKDCVPLMKPHRPWADTCSSSMK [G23M]	3.08
QKKDCVPLMKPHRPWADTCSSSHK [G23H]	2.62
QKKDCVPLMKPHRPWADTCSSSYK [G23Y]	3.15
QKKDCVPLMKPHRPWADTCSSSLK [G23L]	3.46
QKKDCVPLMKPHRPWADTCSSSIK [G23I]	2.76
QKKDCVPLMKPHRPWADTCSSSWK [G23W]	1.6
QKKDCVPLMKPHRPWADTCSSSSK [G23S]	3.32

Variant	protein stability index
QKKDCVPLMKPHRPWADTCSSSNK [G23N]	3.13
QKKDCVPLMKPHRPWADTCSSSRK [G23R]	3.5
QKKDCVPLMKPHRPWADTCSSSCK [G23C]	2.45
QKKDCVPLMKPHRPWADTCSSSDK [G23D]	2.46
QKKDCVPLMKPHRPWADTCSSSVK [G23V]	2.33
QKKDCVPLMKPHRPWADTCSSSPK [G23P]	3.81
QKKDCVPLMKPHRPWADTCSSYGK [S22Y]	3.29
QKKDCVPLMKPHRPWADTCSSCGK [S22C]	2.94
QKKDCVPLMKPHRPWADTCSSKGK [S22K]	3.69
QKKDCVPLMKPHRPWADTCSSNGK [S22N]	2.89
QKKDCVPLMKPHRPWADTCSSEGK [S22E]	3.13
QKKDCVPLMKPHRPWADTCSSDGK [S22D]	2.61
QKKDCVPLMKPHRPWADTCSSMGK [S22M]	3.43
QKKDCVPLMKPHRPWADTCSSIGK [S22I]	3.13
QKKDCVPLMKPHRPWADTCSSRGK [S22R]	3.3
QKKDCVPLMKPHRPWADTCSSHGK [S22H]	3.96
QKKDCVPLMKPHRPWADTCSSPGK [S22P]	3.68
QKKDCVPLMKPHRPWADTCSSFGK [S22F]	2.74
QKKDCVPLMKPHRPWADTCSSVGK [S22V]	2.78
QKKDCVPLMKPHRPWADTCSSWGK [S22W]	2.12
QKKDCVPLMKPHRPWADTCSSAGK [S22A]	2.95
QKKDCVPLMKPHRPWADTCSSGGK [S22G]	2.23
QKKDCVPLMKPHRPWADTCSSTGK [S22T]	3.08
QKKDCVPLMKPHRPWADTCSSSGQ [K24Q]	3.57

Variant	protein stability index
QKKDCVPLMKPHRPWADTCSSSGN [K24N]	2.97
QKKDCVPLMKPHRPWADTCSSSGV [K24V]	2.55
QKKDCVPLMKPHRPWADTCSSSGW [K24W]	1.98
QKKDCVPLMKPHRPWADTCSSSGC [K24C]	3.33
QKKDCVPLMKPHRPWADTCSSSGH [K24H]	2.46
QKKDCVPLMKPHRPWADTCSSSGE [K24E]	2.28
QKKDCVPLMKPHRPWADTCSSSGG [K24G]	3.62
QKKDCVPLMKPHRPWADTCSSSGY [K24Y]	1.98
QKKDCVPLMKPHRPWADTCSSSGF [K24F]	2.56
QKKDCVPLMKPHRPWADTCSSSGL [K24L]	1.78
QKKDCVPLMKPHRPWADTCSSSGS [K24S]	2.23
QKKDCVPLMKPHRPWADTCSSSGI [K24I]	2.51
QKKDCVPLMKPHRPWADTCSSSGM [K24M]	2.05
QKKDCVPLMKPHRPWADTCSSSGA [K24A]	3.7
QKKDCVPLMKPHRPWADTCSSSGD [K24D]	3.22
QKKDCVPLMKPHRPWADTCSSSGP [K24P]	3.18
QKKDCVPLMKPHRPWADTCSSSGT [K24T]	2.85
QKKDCVPLMKPHRPWADTYSSSGK [C19Y]	3.25
QKKDCVPLMKPHRPWADTPSSSGK [C19P]	4.37
QKKDCVPLMKPHRPWADTSSSSGK [C19S]	4.36
QKKDCVPLMKPHRPWADTVSSSGK [C19V]	2.17
QKKDCVPLMKPHRPWADTTSSSGK [C19T]	3.82
